The values below come from the nanobody polyreactivity screen of Harvey et al. (2022).

A short description of the data set: yeast display, Sf9 membrane polyspecificity reagent, FACS + sequencing; frameworks hold sequencing errors. The method in brief: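 Polyreactivity labels are assigned by the sorting gate from which each nanobody was recovered. The gates were low and high (top ~1%), set on anti-HA fluorescence for expression and streptavidin fluorescence for reagent binding. Before sorting, galactose-induced (36–48 hours) yeast display cells were stained for 1 hour at 4 °C with 10% biotinylated, detergent-solubilized Sf9 membrane reagent.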
Turning to “QVQLVESGGGLVLAGGSLRLSCAASGRSFVSNALGWSRQAPGSDRELVARISNGASTDADSVKGRFTISRDNAKKTVYLQINSLKPEDTAVYYSAKTTRRGGVALGEYDYWGQLTQVTVSS”, the “polyreactivity (PSR sort gate)” value is given as “low polyreactivity”.

Consider “QVQLVESGGGLVLAGGSLRLSCAASGRTFRSYAMGWYRQAPGKERELVAAISSGGSTNYADSVKGRFTISRDNAKNTVYLQMNSLKPEDTAVYYCAATFQLYRFIGYEYWGQGTQVTVSS”, for which the “polyreactivity (PSR sort gate)” value was “high polyreactivity”.

For “QVQLVESGGGLVLAGGSLRLSCAASGSIFQPNAMGWYRQAPGKERELVASIRGRGGDTYYADSVKGRFTISRDNAKNSVYLQMNSLKPEDTAVDYCAADYRWGQGTQVTVSS”, the “polyreactivity (PSR sort gate)” value is recorded as “low polyreactivity”.

Turning to “QVQLVESGGGLVLAGGSLRLSCAASGSTFFSYMGWYREAPGKERELVAANTSGAITYYADSVKGRFTISRDNAKNTVYLQMNSLKPEDTAVYYCNTDRYYVTLRNLEMDYWGQGTQVTVSS”, the “polyreactivity (PSR sort gate)” value was “low polyreactivity”.

In the case of “QVQLVESGGGLVLAGGSLRLSCAASRFILRDNGMGWNRKAPVKERELVAAISERGGRTDYADSVKGRFTISRDNAKNTVYLQMNSLKPEDTAVYYCAAEDIANFYYWGQGPQVTVSS”, the “polyreactivity (PSR sort gate)” value is “high polyreactivity”.

As for “QVQLVESGGGLVLAGGSLRLSCADSGLILRLNAMGWYRQAPGKDRELVATINRGGSTNYADSVKGRFTISRDNAKNTVFLQMNSLNPEDTAVDYCNKARTSQYHHTYWRTYGYWGQGTQVTVSS”, the “polyreactivity (PSR sort gate)” value was “low polyreactivity”.

Consider “QVQLVESGGGLVLAGGSLRLSGAASGRISGYNVLGWARQAAGKERELVAAISGSGGSTYYADSVKGRFTISRDNAKNTVYLQMNSLKPEDTADYYCGKATGYPYDYWGHGTQVTVSS”, for which the “polyreactivity (PSR sort gate)” value was “low polyreactivity”.

As for “QVQLVESGGGLVLAGGSLRLSSAASGSIFYRNAMGWYRQSPGKERQLVATITVNGGRTYYADSVKGRFTISRDIAKNTVYLQMNSLKPEDTAVYYCAKDVHRWYPYDYCGQGTQVTVSS”, the “polyreactivity (PSR sort gate)” value is on record as “low polyreactivity”.

For the sequence “QVQLVESGGGLVLAGVSLRLSCAASGSTFPYNAMGWYRQAPGKERELVAAITSRGGSTYYADSVKGRFTISRDNAKNTVYLQMNSLKPEDTAVYYCATPGDTYGWTRRRYYYWGQGTQVTVSS”, the “polyreactivity (PSR sort gate)” value is “high polyreactivity”.

For “QVQLVESGGGLVNAGGSLRLSCAASGSTFYLYHMGWYRQAPGKEREFFARITWSGGSTYYADSVKGRFTLSRDNAKNTVYLQMNSLKPEDTAVYYCNKVYGQRNSYPDYDYWGQGSQVTVSS”, the “polyreactivity (PSR sort gate)” value is on record as “high polyreactivity”.

As for “QVQLVESGGGLVPAGGSLRLRCAASGSTFPYYAMGGYRQAPGKERELVAAIRRSGANTYYADSVKGRFTISRDNAKNTVYLQMNSLKPEDTAVYYCNVEYVISWWLYDYWGQGTQVTVSS”, the “polyreactivity (PSR sort gate)” value was “low polyreactivity”.

“QVQLVESGGGLVPAGGSLRLRCAASGYIFRQNAMGWYRQAPGKERELVAVITARGGSTYYADSVKGRFTISRDNEKNTVYLQMNSLKPEDTAVYYCNARYYRRQYRGGAYWGQGTQVTVSS”: the “polyreactivity (PSR sort gate)” value is listed as “low polyreactivity”.

For the sequence “QVQLVESGGGLVPAGGSLRLSCAASGFIFGGYAMGWYRQAPGKERELVADITTSGDSTYYADSVKGRFTISRDNAKNTVYLQMNSLKPEDTAVYYCNAKRSFRWTYGYWGQGTQVTVSS”, the “polyreactivity (PSR sort gate)” value is on record as “high polyreactivity”.

On to “QVQLVESGGGLVPAGGSLRLSCAASGFTFNSNAMGWYRQAPGKERELVAAISGSGGRTYYADSVKGRFTISRDNAKNTVYLQRNSLKPEDTAVYYCAADYPVRSYDYWGQGTQVTVSS”, for which the “polyreactivity (PSR sort gate)” value was “low polyreactivity”.

Consider “QVQLVESGGGLVPAGGSLRLSCAASGNIYRYYVMGWYRQAPGKEREFVAAITSSGGSTYYADSVKGRFTISRDNAKNTVYLQMNSLKPEDTAVYYCAKDYWDPGWAEYDDWGQGTQVTVSS”, for which the “polyreactivity (PSR sort gate)” value is listed as “low polyreactivity”.

“QVQLVESGGGLVPAGGSLRLSCAASGNNFRANTMGWYRQARGKERELVASIRRSGGSSYYADSVKGRFTISRDNAKNTVYLQMNSLKPEDTAAYYCAAESRPPYTDNYYWGQGTQVTVSS”: the “polyreactivity (PSR sort gate)” value is reported as “high polyreactivity”.

For the sequence “QVQLVESGGGLVPAGGSLRLSCAASGRTLGYNAMGWYRQAPGKERELVAAISRGDSTNYADSVKGRFTISRDNAKNTVYLQMNSLKPEDTAVYYCAAAFPRYRSRAIRVDYWGQGTQVTVSS”, the “polyreactivity (PSR sort gate)” value is reported as “high polyreactivity”.

Consider “QVQLVESGGGLVPAGGSLRLSCAASGSIFVKYALGRYRPAPGKERELVAAISRSGTRTYYADSVKGRFTISRDNAKNTVYLQMNSLKPEDTAVYYCAAAATTVRPYEYWGQGTQVTVSS”, for which the “polyreactivity (PSR sort gate)” value is listed as “high polyreactivity”.

Consider “QVQLVESGGGLVPAGGSLRLSCAASGSNFYWYVMGWYRQAPGKERELVADIRYSPGRTYYADSVKGRFTISRDNAKNTVYLQMNSLIPEDTAVYYCKARRRLFTVDFDYWGQGTQVTVSS”, for which the “polyreactivity (PSR sort gate)” value is reported as “high polyreactivity”.

With “QVQLVESGGGLVPAGGSLRLSCAASGSTFKIYAMGWYRQAPGKERELVARITSGGSTNYADSVKGRFTISRDNAKNTVYLQMNSLKPDDTAVYYCAARRWSYSTRGQRSTNLDYWGQGTQVTVSS”, the “polyreactivity (PSR sort gate)” value was “high polyreactivity”.

As to “QVQLVESGGGLVPAGGSLRLSCAASGSTFPGYAMGWYRQAPGQERELVAAISTSGGRTYYADSVKGRFTISRDNAKNTVYLQMNSLKPEDTAVYYCARVAFYVAHGGFAFGRYYYWGQGTQVTVSS”, the “polyreactivity (PSR sort gate)” value is “low polyreactivity”.

Turning to “QVQLVESGGGLVPARGSLRLSCAASGFTFYRYAMGCYRQAPGKERELVAAITSRSGITYYADSVKGRFTISRDNAKNTVYLQMNSLKPEDTAVYYCAAYVYRSTEFDYGYWGQGTQVTVSS”, the “polyreactivity (PSR sort gate)” value is given as “high polyreactivity”.

Consider “QVQLVESGGGLVPARGSLRLSCAASGIILRGYAMGWYRQSPGKERELVAAITYRGSSTYYADSVKGSFTISRDNAKNTVYLQMNSLKPEDTAVYYCGADRWLYAVITAGGGYWGQGTQVTVSS”, for which the “polyreactivity (PSR sort gate)” value is recorded as “high polyreactivity”.

“QVQLVESGGGLVQAAASLRLSCPASGSTFRFYTMALYIQSPGTESDLVAAITRRGGITFYSDSVKWRFTISRDNAKNTVYLHMNSLKPEDTAVYDCAARFAYWGQDYYFWGQGSQVTVSS”: the “polyreactivity (PSR sort gate)” value is “high polyreactivity”.

On to “QVQLVESGGGLVQAAGSLPLSCAASGSTLLNYAMGWYRQAPGKQSQLVAAISSSGGRTYYADSVKGRFTISRDNAKNTVYLQMNSLKPEDTAVYYCNKGLGYPKTFGYWGQGTQVTVSS”, for which the “polyreactivity (PSR sort gate)” value is “high polyreactivity”.

As to “QVQLVESGGGLVQAAGSLRFSWAASRSIFRQYGMGWYRQAHGKERELVARISRRSGTTYYADSVKGRFTISRDYAKNTVYLQMNSLKPEDSAVSYCAAVPGWIHVDYWGQGTQVTVSS”, the “polyreactivity (PSR sort gate)” value is given as “high polyreactivity”.

As for “QVQLVESGGGLVQAAGSLRLSCAASGLPSVDAMGWYRQAPGKERELVAAISLTGSSTYYADSVKGRFTISRDNAKNTVYLQRNSLKPEDTAVYYCAADSSYTPNDDNWGQGTQVTVSS”, the “polyreactivity (PSR sort gate)” value is “low polyreactivity”.

For “QVQLVESGGGLVQAAGSLRLSCAASGRISRTNAMGWYRQAPGKERQLVATINSGTGTNYADSVKGRFTISRDNAKNTVYLQMNSLKPEDTEVYYCAARYRYWPKYYPVSYRYDYWGQGTQVTVSS”, the “polyreactivity (PSR sort gate)” value was “low polyreactivity”.

For the sequence “QVQLVESGGGLVQAAGSLRLSCAASGRTFYRNAMGWYRQAPGKERELVAAISQSGGSTYYADSVKGRFTISRDNAKNTVYLQMNSLKPEDTAVYYWAAGNSRRVGMDYWGQGTQVTVSS”, the “polyreactivity (PSR sort gate)” value is given as “high polyreactivity”.

With “QVQLVESGGGLVQAAGSLRLSCAASGSIFRPYAMGWYRQAPGKERELVATITSRGGSTYYADSVKGRFTISRDNAKNTVYLQMNSMKPEDTAVYYCAARYISSYGRTQDYSRYDYWGQGTQVNVSS”, the “polyreactivity (PSR sort gate)” value was “high polyreactivity”.

With “QVQLVESGGGLVQAAGSLRLSCAASGSIFVSYAMGWYRPAPWKEREFVATINYSGGSSYYADSVKGRFTISRDNAKNTVYLQMNSLKPEDTAVYYCAARPYHHGYWLNYGYWGQGTQVTVSS”, the “polyreactivity (PSR sort gate)” value was “high polyreactivity”.

Regarding “QVQLVESGGGLVQAAGSLRLSCAASGSTFTLNAMGWNRQAPGKERELVAAITSGGRTKYADSVKGRFTISRDNAKNTVYLQMNSLKPEDTAVYYCAATFAGGYGYWGQGTQVTVSS”, the “polyreactivity (PSR sort gate)” value is reported as “high polyreactivity”.

Regarding “QVQLVESGGGLVQAGASLRLSCAASGFIFGKYAMGWYRQAPGKERELVAAISSSGGSTYYADSVKGRFTISRDTAKNTVYLQMNSLKPEDTAGYYCNAKVRGTNTAGVDYWGQGTQVTVSS”, the “polyreactivity (PSR sort gate)” value is on record as “high polyreactivity”.

As for “QVQLVESGGGLVQAGASLRLSCAASGFIYSFNTMGWYRQAPGKERELVAAITSGGSTNYADSVKGRFTISRDNAKNTVYLQMNSLKPEDTAVYYCNRQYYSYYGNDYWGQGTQVTVSS”, the “polyreactivity (PSR sort gate)” value was “high polyreactivity”.

For “QVQLVESGGGLVQAGASLRLSCAASGFTFVHYALGWYRQAPGKERELVAAITWNGGRTYYADSVQGRFTISRDNAKNTVYFQMNSLKPEDTAVYYCNAVRITYGRYDLDYWGQGTQVTVSS”, the “polyreactivity (PSR sort gate)” value was “high polyreactivity”.

Take “QVQLVESGGGLVQAGASLRLSCAASGGTFLIYGRGWYRQAPGKERELVAAISRSGGSTYYADSVKGRFTISRDNAKNTVYLQMNSLKPEDTAVYYCAADSGYLSPYDYWGQGTQVTVSS”: the “polyreactivity (PSR sort gate)” value is “low polyreactivity”.

Take “QVQLVESGGGLVQAGASLRLSCAASGIIFPRYAMGWSRQAPGKERDLVAAISYSGGSTYYADSVKGRFTISRDNAKNTVYLQMNSLKPEDPAVYYCAAKWGWKVGYSYYYWGQGTQVTVSS”: the “polyreactivity (PSR sort gate)” value was “high polyreactivity”.

On to “QVQLVESGGGLVQAGASLRLSCAASGITFYSYGMGWYRQAPGKERELVAAISGSGTTTYADSVKGRFTISRDNAKNPVYLQMNSLKPEDTAVYYCAAVARYPRWHHYYWGQGTQVTVSS”, for which the “polyreactivity (PSR sort gate)” value is reported as “low polyreactivity”.

Turning to “QVQLVESGGGLVQAGASLRLSCAASGLTYSHYAMGWYRQAPGKERQLVAGISSRGGNTYYADSVKGRFTISRDNAKNTVYLQMNSLKPEDTAVYYCNAPKPKRAYDYWGQGTQVTVSS”, the “polyreactivity (PSR sort gate)” value is listed as “high polyreactivity”.

Take “QVQLVESGGGLVQAGASLRLSCAASGRTFGGYAMGWYRQAPGKERQLVAAISSSGTGTSYADSVKGRFTISRDNAKNTVYFEMNSLKPEDTAVYYCAARSSRTVLSIQDDDYWGQGTQVTVSS”: the “polyreactivity (PSR sort gate)” value is on record as “low polyreactivity”.

For the sequence “QVQLVESGGGLVQAGASLRLSCAASGRTFYRYAMGWYRQAPGKEREFVAAISNGGSNTRYADSVKGRFTISRDTAKNNVYFQMNSLKPEETAVYYCAARAYQHYNWGQGTQVTVSS”, the “polyreactivity (PSR sort gate)” value is “high polyreactivity”.
